Source: patent US20240132593A1 (KINETA, published 2024)

Tests used:
VSTB174 [1] = assay: peptide blocking ELISA on plate-bound VISTA, peptide 20 ug/mL
Protocol: (§1) ELISA was used to measure the ability of sequential overlapping 15-mer synthetic peptides from human VISTA to block binding of an antibody to full length VISTA-ECD immobilized on a microtiter plate. Nickel coated ELISA plates were blocked with BSA and bound with 0.5 μg/mL VISTA protein (Human recombinant, produced in HEK 293 cells, SinoBiologics) for 1 h at room temperature. Anti-VISTA antibodies were diluted to 2-fold their EC₅₀ concentrations and pre-incubated at a 1:1 ratio with either 2 μg/mL or 20 μg/mL peptide solution in 0.5% BSA in PBST for 30 min at room temperature. Peptide-bound antibody solutions (50 μL) were added to each microtiter well and incubated for 1 h at room temperature, after which the ELISA plate was washed and processed as described above for standard ELISAs. Data are expressed as a percent reduction in ELISA signal obtained without preincubation with peptide solution.

Antibody No. 465.1 [2] = target: T1, Antibody No. 465.1; assay: as above
T1 construct: also called Ab No. 465.1
Protocol: as §1

Antibody No. 245.1 [3] = assay: as above
Protocol: as §1

VSTB174 [4] = assay: peptide blocking ELISA on plate-bound VISTA, peptide 2 ug/mL
Protocol: as §1

Antibody No. 465.1 [5] = target: T1, Antibody No. 465.1; assay: as above
Protocol: as §1

Antibody No. 245.1 [6] = assay: as above
Protocol: as §1

Chain of VSTB174 (VH, as listed by the source, chain 1 of 2): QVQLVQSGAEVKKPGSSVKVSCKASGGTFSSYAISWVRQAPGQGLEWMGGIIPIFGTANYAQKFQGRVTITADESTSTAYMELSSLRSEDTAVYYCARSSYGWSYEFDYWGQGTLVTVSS
Chain of VSTB174 (VL, as listed by the source, chain 2 of 2): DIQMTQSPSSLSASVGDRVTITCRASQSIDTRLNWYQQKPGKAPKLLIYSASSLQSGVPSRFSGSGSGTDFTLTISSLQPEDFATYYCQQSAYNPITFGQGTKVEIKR

Binder	percent reduction in ELISA signal (VSTB174 [1]) [%]	percent reduction in ELISA signal (Antibody No. 465.1 [2]) [%]	percent reduction in ELISA signal (Antibody No. 245.1 [3]) [%]	percent reduction in ELISA signal (VSTB174 [4]) [%]	percent reduction in ELISA signal (Antibody No. 465.1 [5]) [%]	percent reduction in ELISA signal (Antibody No. 245.1 [6]) [%]
FKVATPYSLYVCPEG (synthetic overlapping peptide from human VISTA) [Spiked Peptide 1 (FKVATPYSLYVCPEG)]	18	7	0	1	5	2
PYSLYVCPEGQNVTL (synthetic overlapping peptide from human VISTA) [Spiked Peptide 2 (PYSLYVCPEGQNVTL)]	3	1	9	8	0	1
VCPEGQNVTLTCRLL (synthetic overlapping peptide from human VISTA) [Spiked Peptide 3 (VCPEGQNVTLTCRLL)]	37	7	3	0	2	0
QNVTLTCRLLGPVDK (synthetic overlapping peptide from human VISTA) [Spiked Peptide 4 (QNVTLTCRLLGPVDK)]	32	16	25	5	0	9
TCRLLGPVDKGHDVT (synthetic overlapping peptide from human VISTA) [Spiked Peptide 5 (TCRLLGPVDKGHDVT)]	14	12	9	14	0	7
GPVDKGHDVTFYKTW (synthetic overlapping peptide from human VISTA) [Spiked Peptide 6 (GPVDKGHDVTFYKTW)]	25	4	9	10	0	3
GHDVTFYKTWYRSSR (synthetic overlapping peptide from human VISTA) [Spiked Peptide 7 (GHDVTFYKTWYRSSR)]	30	26	26	8	0	12
FYKTWYRSSRGEVQT (synthetic overlapping peptide from human VISTA) [Spiked Peptide 8 (FYKTWYRSSRGEVQT)]	34	0	1	22	0	8
YRSSRGEVQTCSERR (synthetic overlapping peptide from human VISTA) [Spiked Peptide 9 (YRSSRGEVQTCSERR)]	0	10	0	0	3	4
GEVQTCSERRPIRNL (synthetic overlapping peptide from human VISTA) [Spiked Peptide 10 (GEVQTCSERRPIRNL)]	0	4	0	2	0	0
CSERRPIRNLTFQDL (synthetic overlapping peptide from human VISTA) [Spiked Peptide 11 (CSERRPIRNLTFQDL)]	14	8	6	10	0	4
PIRNLTFQDLHLHHG (synthetic overlapping peptide from human VISTA) [Spiked Peptide 12 (PIRNLTFQDLHLHHG)]	89	55	62	52	9	20
TFQDLHLHHGGHQAA (synthetic overlapping peptide from human VISTA) [Spiked Peptide 13 (TFQDLHLHHGGHQAA)]	81	36	57	26	15	3
HLHHGGHQAANTSHD (synthetic overlapping peptide from human VISTA) [Spiked Peptide 14 (HLHHGGHQAANTSHD)]	79	43	66	20	11	1
GHQAANTSHDLAQRH (synthetic overlapping peptide from human VISTA) [Spiked Peptide 15 (GHQAANTSHDLAQRH)]	35	3	0	9	0	11
NTSHDLAQRHGLESA (synthetic overlapping peptide from human VISTA) [Spiked Peptide 16 (NTSHDLAQRHGLESA)]	28	0	14	10	0	0
LAQRHGLESASDHHG (synthetic overlapping peptide from human VISTA) [Spiked Peptide 17 (LAQRHGLESASDHHG)]	46	7	26	21	8	13
GLESASDHHGNFSIT (synthetic overlapping peptide from human VISTA) [Spiked Peptide 18 (GLESASDHHGNFSIT)]	32	4	3	17	0	3
SDHHGNFSITMRNLT (synthetic overlapping peptide from human VISTA) [Spiked Peptide 19 (SDHHGNFSITMRNLT)]	28	4	9	10	3	0
NFSITMRNLTLLDSG (synthetic overlapping peptide from human VISTA) [Spiked Peptide 20 (NFSITMRNLTLLDSG)]	42	24	28	20	0	23
MRNLTLLDSGLYCCL (synthetic overlapping peptide from human VISTA) [Spiked Peptide 21 (MRNLTLLDSGLYCCL)]	38	22	4	15	0	10
LLDSGLYCCLVVEIR (synthetic overlapping peptide from human VISTA) [Spiked Peptide 22 (LLDSGLYCCLVVEIR)]	75	41	34	18	0	0
